Literature values in publication PMC11899465.
Read-outs that look alike come from different tables or passages of the source.

Experiments:
CD137 (Homo sapiens) [1] = target: CD137 (Homo sapiens) (UniProt Q07011)
CD137 (Homo sapiens) [2] = target: CD137 (Homo sapiens) (UniProt Q07011); remark: listed apart in the source

Sequence of CD137 (Homo sapiens) (Q07011 24-255): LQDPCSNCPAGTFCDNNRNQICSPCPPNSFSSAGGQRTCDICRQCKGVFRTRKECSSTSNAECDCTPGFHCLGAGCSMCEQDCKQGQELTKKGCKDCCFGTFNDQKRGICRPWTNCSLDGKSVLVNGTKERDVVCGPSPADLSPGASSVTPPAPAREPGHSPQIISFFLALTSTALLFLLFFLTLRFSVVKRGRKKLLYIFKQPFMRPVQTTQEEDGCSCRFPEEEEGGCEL
Sequence of CD137L (monomer) (P41273 whole entry): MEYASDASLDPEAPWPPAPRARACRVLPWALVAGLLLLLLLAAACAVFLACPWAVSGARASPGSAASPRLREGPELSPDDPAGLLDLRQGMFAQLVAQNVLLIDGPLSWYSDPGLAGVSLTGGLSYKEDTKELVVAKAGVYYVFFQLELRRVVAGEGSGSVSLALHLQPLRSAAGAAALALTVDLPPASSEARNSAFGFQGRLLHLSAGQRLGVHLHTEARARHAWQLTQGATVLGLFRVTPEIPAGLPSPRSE
Sequence of CD137L (homotrimer) (P41273 whole entry): as above

Row | Kd (CD137 (Homo sapiens) [1]) [nM] | Kd (CD137 (Homo sapiens) [2]) [nM] | Substance
1 | 1.2 |  | CD137L (homotrimer) (from UniProt P41273)
2 |  | 55.2 | CD137L (monomer) (from UniProt P41273)
